This is an account of results in PMC11089037, “Structural basis of negative regulation of CRISPR-Cas7-11 by TPR-CHAT”.

One series addresses DiCas7-11;DiTPR-CHAT (Desulfonema ishimotonii;Desulfonema …, UniProt A0A401FT36;A0A401FT52 1-1601;1-751, |). Nature of the series: cryo-EM; with full-length TPR-CHAT; EMSA: 40 mM Tris-HCl pH 7.5, 60 mM NaCl, 6 mM MgCl2, 30 min at 4 C; 15% native PAGE; cryo-EM samples: 20 mM HEPES-NaOH pH 8.0, 300 mM NaCl, 0.5 mM DTT. As to conditions: protein: recombinant;recombinant; tags: N-terminal 8xHis-SUMO-TEV;C-terminal 2xStrep; copies: 1;1; single strand, V-shaped 5' repeat. For orientation: A gel shift assay detects complexes by their altered migration in electrophoresis.

Another series addresses DiCas7-11;DiTPR-CHAT NTD (Desulfonema ishimotonii;Desulfonema …, UniProt A0A401FT36;A0A401FT52 1-1601;1-65, |). Put plainly: cryo-EM; with TPR-CHAT NTD; EMSA: 40 mM Tris-HCl pH 7.5, 60 mM NaCl, 6 mM MgCl2, 30 min at 4 C; 15% native PAGE; cryo-EM samples: 20 mM HEPES-NaOH pH 8.0, 300 mM NaCl, 0.5 mM DTT. As to conditions: protein: recombinant;recombinant; tags: N-terminal 8xHis-SUMO-TEV;C-terminal 2xStrep; copies: 1;1; single strand, V-shaped 5' repeat.

For the next series, the target named is DiCas7-11 (Desulfonema ishimotonii, UniProt A0A401FT36 1-1601). Put plainly: cryo-EM; EMSA: 40 mM Tris-HCl pH 7.5, 60 mM NaCl, 6 mM MgCl2, 30 min at 4 C; 15% native PAGE; cryo-EM samples: 20 mM HEPES-NaOH pH 8.0, 300 mM NaCl, 0.5 mM DTT. Conditions: protein: recombinant; tags: N-terminal 8xHis-SUMO-TEV; single strand, V-shaped 5' repeat.
A further series deals with DiCas7-11Inactive (Desulfonema ishimotonii, UniProt A0A401FT36 1-1601, D429A;D654A). Put plainly: cryo-EM; pre-crRNA at 1:2 molar ratio; target RNA not seen in the map; EMSA: 40 mM Tris-HCl pH 7.5, 60 mM NaCl, 6 mM MgCl2, 30 min at 4 C; 15% native PAGE; cryo-EM samples: 20 mM HEPES-NaOH pH 8.0, 300 mM NaCl, 0.5 mM DTT. Conditions: protein: recombinant; tags: N-terminal 8xHis-SUMO-TEV.
DiCas7-11Inactive, sequence (A0A401FT36 entry or part of it D429A;D654A): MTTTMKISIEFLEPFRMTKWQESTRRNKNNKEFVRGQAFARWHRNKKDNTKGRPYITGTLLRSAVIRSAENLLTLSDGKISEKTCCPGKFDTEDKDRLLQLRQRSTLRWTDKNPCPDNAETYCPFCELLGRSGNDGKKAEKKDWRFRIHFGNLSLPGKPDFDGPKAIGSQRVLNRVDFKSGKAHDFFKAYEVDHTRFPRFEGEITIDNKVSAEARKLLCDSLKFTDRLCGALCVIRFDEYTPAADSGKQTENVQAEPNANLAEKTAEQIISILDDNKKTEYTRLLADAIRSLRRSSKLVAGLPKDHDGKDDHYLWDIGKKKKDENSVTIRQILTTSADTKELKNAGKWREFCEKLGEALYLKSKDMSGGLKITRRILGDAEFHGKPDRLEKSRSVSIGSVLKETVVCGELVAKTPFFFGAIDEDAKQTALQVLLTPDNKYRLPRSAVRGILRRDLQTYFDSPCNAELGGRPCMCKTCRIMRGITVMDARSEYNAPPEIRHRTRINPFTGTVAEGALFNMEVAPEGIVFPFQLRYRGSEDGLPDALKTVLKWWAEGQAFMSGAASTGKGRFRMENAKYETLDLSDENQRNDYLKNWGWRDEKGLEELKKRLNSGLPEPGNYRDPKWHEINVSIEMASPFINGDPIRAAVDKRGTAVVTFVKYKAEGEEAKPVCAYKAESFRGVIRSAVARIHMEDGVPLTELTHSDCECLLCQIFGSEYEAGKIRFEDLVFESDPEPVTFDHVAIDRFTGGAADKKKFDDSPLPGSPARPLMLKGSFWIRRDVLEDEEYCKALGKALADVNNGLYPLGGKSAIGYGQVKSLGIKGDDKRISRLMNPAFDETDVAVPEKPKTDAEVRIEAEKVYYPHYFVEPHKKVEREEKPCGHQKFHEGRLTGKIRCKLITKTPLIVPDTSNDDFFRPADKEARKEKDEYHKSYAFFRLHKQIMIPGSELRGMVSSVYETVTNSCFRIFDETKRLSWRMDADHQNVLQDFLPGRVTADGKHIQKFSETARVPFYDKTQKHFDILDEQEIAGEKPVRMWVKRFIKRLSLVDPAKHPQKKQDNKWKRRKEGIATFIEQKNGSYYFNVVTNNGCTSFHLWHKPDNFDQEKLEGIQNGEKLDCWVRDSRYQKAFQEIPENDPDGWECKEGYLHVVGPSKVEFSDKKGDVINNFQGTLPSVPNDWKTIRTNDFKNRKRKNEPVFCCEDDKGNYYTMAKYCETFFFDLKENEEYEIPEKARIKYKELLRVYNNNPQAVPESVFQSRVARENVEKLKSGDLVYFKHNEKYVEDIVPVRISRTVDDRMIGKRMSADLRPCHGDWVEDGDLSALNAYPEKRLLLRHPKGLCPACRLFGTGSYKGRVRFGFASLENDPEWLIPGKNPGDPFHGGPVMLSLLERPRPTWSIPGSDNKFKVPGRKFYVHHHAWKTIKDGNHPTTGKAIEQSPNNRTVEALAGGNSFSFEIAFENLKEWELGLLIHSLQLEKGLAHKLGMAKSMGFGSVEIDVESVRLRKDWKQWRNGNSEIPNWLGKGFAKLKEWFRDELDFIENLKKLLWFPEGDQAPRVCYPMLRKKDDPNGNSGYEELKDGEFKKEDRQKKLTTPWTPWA

DiCas7-11;DiTPR-CHAT NTD, sequence (chain, as listed by the source |, chain 1 of 2): as the sequence (A0A401FT36 entry or part of it D429A;D654A) above, with A429D, A654D counted along it
DiCas7-11;DiTPR-CHAT NTD, sequence (chain, as listed by the source |, chain 2 of 2): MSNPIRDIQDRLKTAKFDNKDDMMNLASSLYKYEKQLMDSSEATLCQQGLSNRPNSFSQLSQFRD
DiCas7-11, sequence (A0A401FT36 entry or part of it): as the sequence (A0A401FT36 entry or part of it D429A;D654A) above, with A429D, A654D counted along it
DiCas7-11;DiTPR-CHAT, sequence (chain, as listed by the source |, chain 1 of 2): as the sequence (A0A401FT36 entry or part of it D429A;D654A) above, with A429D, A654D counted along it
DiCas7-11;DiTPR-CHAT, sequence (chain, as listed by the source |, chain 2 of 2): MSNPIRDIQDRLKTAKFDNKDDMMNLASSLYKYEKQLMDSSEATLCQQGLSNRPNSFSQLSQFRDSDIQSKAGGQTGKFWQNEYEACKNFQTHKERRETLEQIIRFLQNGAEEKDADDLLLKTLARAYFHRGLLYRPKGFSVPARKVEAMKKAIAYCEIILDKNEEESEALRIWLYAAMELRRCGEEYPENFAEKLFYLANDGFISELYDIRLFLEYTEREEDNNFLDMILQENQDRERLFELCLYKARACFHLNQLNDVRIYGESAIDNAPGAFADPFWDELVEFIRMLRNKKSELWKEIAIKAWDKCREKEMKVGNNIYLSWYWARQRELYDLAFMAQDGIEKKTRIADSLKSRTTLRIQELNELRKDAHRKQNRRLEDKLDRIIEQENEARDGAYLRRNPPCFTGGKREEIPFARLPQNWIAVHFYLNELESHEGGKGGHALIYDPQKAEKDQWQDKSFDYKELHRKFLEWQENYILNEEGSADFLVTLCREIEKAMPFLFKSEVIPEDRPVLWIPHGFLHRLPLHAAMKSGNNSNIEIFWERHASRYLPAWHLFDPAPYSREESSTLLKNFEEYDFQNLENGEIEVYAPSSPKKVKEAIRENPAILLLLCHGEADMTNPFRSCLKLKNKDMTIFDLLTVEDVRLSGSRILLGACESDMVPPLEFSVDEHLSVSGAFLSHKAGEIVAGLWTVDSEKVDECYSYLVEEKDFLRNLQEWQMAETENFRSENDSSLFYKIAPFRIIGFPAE

For UUGAUGUCACGGAACCUUUGUUGUCUUCGACAUGGGUA (structured_RNA) [mature crRNA in cryo-EM structures, U(-15)-A(23)], the binding result with DiCas7-11;DiTPR-CHAT, with DiCas7-11;DiTPR-CHAT NTD and in the series with DiCas7-11 was “binds” each time.

B1: single spacer pre-crRNA (ssRNA)
RNA: GGUUGGAAAGCCGGUUUUCUUUGAUGUCACGGAACCUUUGUUGUCUUCGACAUGGGUAAUCCUCAU
B1: the binding result with DiCas7-11Inactive is “binds”.
